The source of these data is paper PMC8165282.

The assay deals with duck STING-LgBiT-Myc (pBiT-STING-LgBiT-Myc). In words: NanoBiT luciferase complementation in DEFs. The settings on record: pBiT-STING-LgBiT-Myc 400 ng/well, pBiT-2KNS4B-SmBiT-Flag or mutant 400 ng/well, 20 h posttransfection, read off a plot.

For the substance “duck TMUV 2KNS4B-SmBiT-Flag (pBiT-2KNS4B-SmBiT-Flag) T9A”, the response (parent: est. 3.3e7) was determined as 2.9e+07 RLU.

As to “duck TMUV 2KNS4B-SmBiT-Flag (pBiT-2KNS4B-SmBiT-Flag) L35A”, the response (parent: est. 3.3e7) was 2.6e+07 RLU.

As for “duck TMUV 2KNS4B-SmBiT-Flag (pBiT-2KNS4B-SmBiT-Flag) R36A”, the response (parent: est. 3.3e7) turned out to be 1.9e+07 RLU.

With “duck TMUV 2KNS4B-SmBiT-Flag (pBiT-2KNS4B-SmBiT-Flag) E7A; Q8A; T9A”, the response (parent: est. 1.7e6) came to 830000 RLU.

For the substance “duck TMUV 2KNS4B-SmBiT-Flag (pBiT-2KNS4B-SmBiT-Flag) L6A”, the response (parent: est. 3.3e7) was found to be 2.7e+07 RLU.

Take “duck TMUV 2KNS4B-SmBiT-Flag (pBiT-2KNS4B-SmBiT-Flag) E7A”: under “parent: est. 3.3e7”, the response is 2.5e+07 RLU.

For “duck TMUV 2KNS4B-SmBiT-Flag (pBiT-2KNS4B-SmBiT-Flag) M3A”, the response (parent: est. 3.3e7) was 2.2e+07 RLU.

Take “duck TMUV 2KNS4B-SmBiT-Flag (pBiT-2KNS4B-SmBiT-Flag) D12A”: the response (parent: est. 3.3e7) was 2.4e+07 RLU.

Regarding “duck TMUV 2KNS4B-SmBiT-Flag (pBiT-2KNS4B-SmBiT-Flag) D34A”, the response (parent: est. 3.3e7) worked out at 1.7e+07 RLU.

Consider “duck TMUV 2KNS4B-SmBiT-Flag (pBiT-2KNS4B-SmBiT-Flag) W5A”, for which the response (parent: est. 3.3e7) came to 1.5e+07 RLU.

For the substance “duck TMUV 2KNS4B-SmBiT-Flag (pBiT-2KNS4B-SmBiT-Flag) N1A; E2A; M3A”, the response (parent: est. 1.7e6) is 930000 RLU.

With “duck TMUV 2KNS4B-SmBiT-Flag (pBiT-2KNS4B-SmBiT-Flag) D34A; L35A; R36A”, under “parent: est. 1.7e6”, the response was determined as 830000 RLU.

With “duck TMUV 2KNS4B-SmBiT-Flag (pBiT-2KNS4B-SmBiT-Flag) E2A”, the response (parent: est. 3.3e7) came out at 2.4e+07 RLU.

Take “duck TMUV 2KNS4B-SmBiT-Flag (pBiT-2KNS4B-SmBiT-Flag) K10A; K11A; D12A”: under “parent: est. 1.7e6”, the response worked out at 1.4e+06 RLU.

As to “duck TMUV 2KNS4B-SmBiT-Flag (pBiT-2KNS4B-SmBiT-Flag) K11A”, the response (parent: est. 3.3e7) worked out at 2.6e+07 RLU.

As to “duck TMUV 2KNS4B-SmBiT-Flag (pBiT-2KNS4B-SmBiT-Flag) G4A; W5A; L6A”, the response (parent: est. 1.7e6) worked out at 1.3e+06 RLU.

For “duck TMUV 2KNS4B-SmBiT-Flag (pBiT-2KNS4B-SmBiT-Flag) K10A”, the response (parent: est. 3.3e7) turned out to be 2e+07 RLU.

Take “duck TMUV 2KNS4B-SmBiT-Flag (pBiT-2KNS4B-SmBiT-Flag) N1A”: the response (parent: est. 3.3e7) was determined as 3.6e+07 RLU.

Regarding “duck TMUV 2KNS4B-SmBiT-Flag (pBiT-2KNS4B-SmBiT-Flag) Q8A”, the response (parent: est. 3.3e7) was found to be 2.7e+07 RLU.

Take “duck TMUV 2KNS4B-SmBiT-Flag (pBiT-2KNS4B-SmBiT-Flag) G4A”: the response (parent: est. 3.3e7) was determined as 2.3e+07 RLU.
